Source: paper PMC5874296, “A CTP Synthase Undergoing Stage-Specific Spatial Expression Is Essential for the Survival of the Intracellular Parasite Toxoplasma gondii” (Frontiers in Cellular and Infection Microbiology, 2018)

B1: TgCTPS (CTP synthase) (Toxoplasma gondii) (protein)
chain: MNAASRAASCPRLDAEFPVPCSLNSPQLFCGHNIFKMATGADSLEFVGNHSPAGGKTKYIVVTGGTMSGLGKGTTISSLGVTLKALGVHVTAIKIDPYLNVDAGTMSPYEHGEVYVLEDGGEVDLDLGNYERFLDITLTRDHNLTSGKVYQKVIQEERKGSYLGKTVQVVPQVTDAIQAWIARVAEQPVDGHYEAPQVCLIEVGGTVGDIESAVYLEALQQFSRRVGRENLCLCHVSYVPCIGGEQKTKPTQHGVKELRMAGLSPDMIFCRCETMLSEAARGKIALFTQVLPEHVISVHDVANTYRVPLVLDSQNVAHSICKRLRLDVATPASPASRPGAPLYKTPISMKKWRLMADRLTSPAESVKIGIVGKYTGLADSYLSVVKALQHGAMEANVRLELVWIESSDLEEPPRESAASNGDSATPARFAAAWEALRSVAGVVCPGGFGDRGILGKALSSRFCRENKVPYLGICLGMQTAVIDFARSVLNLADANSEEFDKTCKHHVVVSMPEHSAEHGQELGGTMRLGKRATILRDSKSLAARLYDGKPVIDERHRHRYEVNPSVVGSMEAKGFMFVGQDERGQRMEVAELRDHPFFLCVQYHPEFQSRPLKPSPPFLGLVLAAAGKLEARFKRYGGFLKSGAVYEEVESA

Tests used:
TgCTPS (CTP synthase) = molecular target: T1, TgCTPS (CTP synthase) (Toxoplasma gondii, UniProt B9Q379); assay: pyruvate kinase/lactate dehydrogenase-coupled assay with recombinant enzyme; format: biochemical
T1 sequence (B9Q379 1-652): B1 chain

[1] = substrate: NC(=O)CC[C@H](N)C(=O)O; assay: steady-state kinetics, coupled enzyme assay (Km); format: biochemical, Toxoplasma gondii; details: Mg2+ negative cooperativity in the binding of L-glutamine to the active site; 37.0 °C
[2] = substrate: Nc1ncnc2c1ncn2[C@@H]1O[C@H](COP(=O)(O)OP(=O)(O)OP(=O)(O)O)[C@@H](O)[C@H]1O; assay: steady-state kinetics, coupled enzyme assay (Km); format: biochemical, Toxoplasma gondii; details: Mg2+; 37.0 °C
purified protein = substrate: O=c1ccn([C@@H]2O[C@H](COP(=O)(O)OP(=O)(O)OP(=O)(O)O)[C@@H](O)[C@H]2O)c(=O)[nH]1; assay: purified protein; format: biochemical, Toxoplasma gondii; details: Mg2+

Molecule | IC50 (TgCTPS (CTP synthase)) [nM] | Km [1] [µM] | kcat [1] [s⁻¹] | kcat/Km [1] [M⁻¹ s⁻¹] | Km [2] [µM] | kcat [2] [s⁻¹] | kcat/Km [2] [M⁻¹ s⁻¹] | K0.5 (purified protein) [mM]
[N-]=[N+]=CC(=O)CC[C@H](N)C(=O)O [DON, 6-diazo-5-oxo-L-norleucine] | ~40 |  |  |  |  |  |  | 
B1 |  | 260 ± 40 | 29.6 | 114000 | 540 ± 50 | 36 | 66700 | 0.47 ± 0.03
